Laboratory results published in US7838294B2, “Inhibitors of the JNK signal transduction pathway and methods of use” (University of Massachusetts, priority 1997, dated 2010).

Assays:
[1] = biological target: T1, JNK2 (Homo sapiens, UniProt P45984); assay: Co-immunoprecipitation of JIP-1 with JNK2; format: binding; conditions: protein immunoblot
T1 construct: expressed in transfected cells

[2] = biological target: ERK2 (Homo sapiens, UniProt P28482); assay: Co-immunoprecipitation of JIP-1 with ERK2 (specificity control); format: binding; conditions: control experiment
[3] = biological target: p38 (Homo sapiens, UniProt Q16539); assay: Co-immunoprecipitation of JIP-1 with p38 (specificity control); format: binding; conditions: control experiment
[4] = system: c-Jun transcriptional activity; assay: GAL4 luciferase reporter assay in CHO cells: GAL4-c-Jun; format: cell-based, Chinese hamster; conditions: FIG. 4B
Description: In these experiments, CHO cells were cotransfected with constructs encoding the transcription factors and JIP-1 using previously described methods. Dérijard et al., supra; Sluss et al., supra; Gupta et al., supra. A luciferase reporter plasmid was used to monitor the expression of the transcription factors. Transfection efficiency was determined using a β-galactosidase expression vector. Constructs used in these experiments included GAL4 fusions with the c-myc, Sp1 and VP16 activation domains (described in Whitmarsh et al., Science, 269:403 (1995); Davis, Science, 269:403 (1995); Gille et al., Curr. Biol., 5:1191 (1995)). […]
Transfected cells were activated by treatment with 10% (v/v) fetal calf serum, and luciferase and β-galactosidase activities were measured in cell lysates at 48 hours post-transfection. The data are presented as the ratio of luciferase activity (light units) to β-galactosidase activity (OD units) measured in the cell extracts (mean±SEM (n=3)), and are normalized to the luciferase activity detected in the absence of JBD (FIGS. 4A and 4B) or ATF2 (FIG. 4C).

[5] = biological target: T2, JNK (Homo sapiens, UniProt P45983); assay: Immunofluorescence: subcellular distribution of JNK on JIP-1 expression; format: cell-based; conditions: HA-JNK1 with Flag-JIP-1; control and UV-irradiated cells
T2 construct: expressed in transfected cells; host or cells: COS-1 cells (co-immunoprecipitation)
Description: The subcellular distribution of JIP-1 was analyzed by performing indirect immunofluorescence on JIP-1-expressing cells. In these experiments, the cells were grown on coverslips, fixed with 4% paraformaldehyde, permeabilized with 0.25% Triton X-100, and processed for immunofluorescence microscopy. JIP-1 was detected in the cytoplasm, but not the nucleus, of control and UV-irradiated cells. In contrast, JNK is detected in both the cytoplasmic and nuclear compartments.
It is likely that it is JNK in the nucleus which is involved in the regulation of gene expression. Since JIP-1 is cytoplasmic, it was unclear how it could inhibit the nuclear function of JNK. To investigate the mechanism of JIP-1 action, the distribution of JNK was examined in cells that had been transfected with either hemagglutinin (HA)-tagged JNK1 (HA-JNK1) alone, or HA-JNK1 and Flag-tagged JIP-1 (Flag-JIP-1). In these experiments, the cells were exposed to a potent JNK activator (40 J/m^2 UV-C) for one hour prior to processing for immunofluorescence. The primary antibodies used were rabbit anti-HA (12CA5; Boehringer Mannheim), which recognizes HA-tagged JNK1; and mouse monoclonal anti-Flag (M2; IBI-Kodak), which recognizes Flag-tagged JIP-1. The secondary antibodies were Texas Red-goat anti-mouse Ig and fluoroscein isothiocyanate-conjugated donkey anti-rabbit Ig (Jackson Immunoresearch). […]

T2 sequence (P45983 1-384 isoform P45983-2): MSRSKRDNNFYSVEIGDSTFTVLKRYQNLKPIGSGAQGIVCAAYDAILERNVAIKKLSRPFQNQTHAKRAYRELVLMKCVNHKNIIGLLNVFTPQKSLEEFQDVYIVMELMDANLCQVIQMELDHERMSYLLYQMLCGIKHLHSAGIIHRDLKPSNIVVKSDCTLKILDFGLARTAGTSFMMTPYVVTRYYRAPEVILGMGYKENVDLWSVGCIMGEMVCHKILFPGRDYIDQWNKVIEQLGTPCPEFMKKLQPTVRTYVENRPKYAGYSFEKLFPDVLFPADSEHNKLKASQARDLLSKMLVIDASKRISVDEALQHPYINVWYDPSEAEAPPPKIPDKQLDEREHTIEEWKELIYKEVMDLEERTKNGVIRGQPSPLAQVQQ
Chain of p38 (Q16539 whole entry, the tested form may be a part): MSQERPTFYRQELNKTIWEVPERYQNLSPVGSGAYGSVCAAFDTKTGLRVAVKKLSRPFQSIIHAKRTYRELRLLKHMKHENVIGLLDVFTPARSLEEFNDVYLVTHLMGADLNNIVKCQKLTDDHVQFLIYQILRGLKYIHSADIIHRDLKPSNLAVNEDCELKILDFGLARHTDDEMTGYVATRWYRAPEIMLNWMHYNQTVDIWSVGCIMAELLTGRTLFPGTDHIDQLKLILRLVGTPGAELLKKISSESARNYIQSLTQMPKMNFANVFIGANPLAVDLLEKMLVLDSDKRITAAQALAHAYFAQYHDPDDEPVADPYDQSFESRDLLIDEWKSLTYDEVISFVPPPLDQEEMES
Chain of ERK2 (P28482 whole entry, species assumed): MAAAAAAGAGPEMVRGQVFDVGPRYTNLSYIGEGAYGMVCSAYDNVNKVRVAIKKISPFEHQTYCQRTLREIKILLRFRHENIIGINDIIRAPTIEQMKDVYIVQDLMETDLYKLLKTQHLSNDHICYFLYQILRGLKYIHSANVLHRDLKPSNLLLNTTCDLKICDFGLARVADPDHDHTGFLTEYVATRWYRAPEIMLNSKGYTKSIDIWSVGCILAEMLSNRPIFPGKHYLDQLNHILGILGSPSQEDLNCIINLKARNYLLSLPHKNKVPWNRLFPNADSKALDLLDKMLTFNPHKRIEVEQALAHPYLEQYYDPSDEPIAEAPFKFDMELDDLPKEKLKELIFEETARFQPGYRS

B1: JIP-1: 660 amino acid murine cytoplasmic protein that specifically binds JNK (protein)
chain: MAERESGLGGGAASPPAASPFLGLHIASPPNFRLTHDISLEEFEDEDLSEITDECGISLQCKDTLSLRPPRAGLLSAGSSGSAGSRLQAEMLQMDLIDAAGDTPGAEDDEEEEDDELAAQRPGVGPPKAESNQDPAPRSQGQGPGTGSGDTYRPKRPTTLNLFPQVPRSQDTLNNNSLGKKHSWQDRVSRSSSPLKTGEQTPPHEHICLSDELPPQGSPVPTQDRGTSTDSPCRRSAATQMAPPSGPPATAPGGRGHSHRDRIHYQADVRLEATEEIYLTPVQRPPDPAEPTSTFMPPTESRMSVSSDPDPAAYSVTAGRPHPSISEEDEGFDCLSSPERAEPPGGGWRGSLGEPPPPPRASLSSDTSALSYDSVKYTLVVDEHAQLELVSLRPCFGDYSDESDSATVYDNCASASSPYESAIGEEYEEAPQPRPPTCLSEDSTPDEPDVHFSKKFLNVFMSGRSRSSSAESFGLFSCVINGEEHEQTHRAIFRFVPRHEDELELEVDDPLLVELQAEDYWYEAYNMRTGARGVFPAYYAIEVTKEPEHMAALAKNSCVLEISVRGVKIGVKADDALEAKGNKCSHFFQLKNISFCGYHPKNNKYFGFITKHPADHRFACHVFVSEDSTKALAESVGRAFQQFYKQFVEYTCPTEDIYLE
For B1, the “co-immunoprecipitation of JIP-1 with JNK2” value [1] was “observed”, the “co-immunoprecipitation of JIP-1 with ERK2” value [2] was “did not co-immunoprecipitate” and the “co-immunoprecipitation of JIP-1 with p38” value [3] was “did not co-immunoprecipitate”. The “basal transcriptional activity of c-Jun mutated at JNK phosphorylation sites” value ([4]; GAL4-c-Jun (S63A/S73A)) was “not markedly inhibited”, the c-Jun transcriptional activity ([4]; wild type GAL4-c-Jun, CHO cells) was “Significant inhibition” and the “amount of nuclear JNK” value [5] was “reduces”.
